# Measurements from the supplement of paper PMC12764529.
# ± gives the half width of the 95% confidence interval.
# Assays:
# [1] = folding stability dG unfold from trypsin proteolysis; higher = more stable
# In short: (§1)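 K50 was inferred by Bayesian fitting of sequencing counts obtained after protease digestion of designed mini-proteins. Unfolding free energy was derived by comparison with a sequence-predicted unfolded-state K50 and a shared folded-state K50, for each protease or both combined. The mini-proteins were under 80 residues, had no cysteine, were carried in a PA-tagged cDNA display construct, and were kept only if AlphaFold2 dimer inter-PAE exceeded 15.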
# [2] = folding stability dG unfold from chymotrypsin proteolysis; higher = more stable
# In short: as §1
# [3] = folding stability dG unfold (combined trypsin and chymotrypsin); higher = more stable
# In short: as §1
Sequence,folding stability dG unfold [1],folding stability dG unfold [2],folding stability dG unfold [3]
SAGGSAGGKTLELEVEALDPITGEPYKVKIIYDPETGTATILVTHPNGKKSLFTVPAGEALKLLSAGGSAGG [r6_219_TrMRF],2.63 ± 0.19 kcal/mol,3.456 ± 0.033 kcal/mol,3.28 ± 0.13 kcal/mol
SAGGSAGGKTLTIKLKDSTVTIELPSSISSISRIEVHSDGSLTLYHSSTGSTITLPIPPKIDNPSAGGSAGG [r6_369_TrMRF],1.74 ± 0.058 kcal/mol,2.06 ± 0.035 kcal/mol,1.96 ± 0.051 kcal/mol
SAGGSAGGKVRINWNPNGWIRIKIETPGKKQEIPIPMDSPEDAKDFVDKLAKQFKVKIEEIEPYSAGGSAGG [r6_254_TrROS],-0.179 ± 0.47 kcal/mol,0.166 ± 0.3 kcal/mol,0.194 ± 0.26 kcal/mol
SAGGSAGGLEDVIRALGLELLEREKIGEKIRILARDPNADRLYEVTVTLEGPPEIEITPLPPGLSAGGSAGG [r6_195_JUSTAS],2.79 ± 0.052 kcal/mol,3.225 ± 0.022 kcal/mol,3.04 ± 0.037 kcal/mol
SAGGSAGGLIEEILKEIGLSPEEVVKVEVEPIEEKENSLTVRVTAEFLLPDGSKKKIEAEFEIGSAGGSAGG [r6_774_TrMRF],1.1 ± 0.06 kcal/mol,1.13 ± 0.082 kcal/mol,1.21 ± 0.11 kcal/mol
SAGGSAGGLTLRLELEIRLEDGLTLRVRVEYDLETNEVKIEIELLPPAPPVEEEPEVLVVEEEESAGGSAGG [r6_926_TrROS_Hall],3 ± 0.29 kcal/mol,4.28 ± 0.29 kcal/mol,3.78 ± 0.41 kcal/mol
SAGGSAGGLYIVRIEIYHPENGKEWTIMIPVPSEEEAKEEAEELAKTFAKKNGYKIEVEVFPLPSAGGSAGG [r6_787_TrROS],1.53 ± 0.033 kcal/mol,2.5 ± 0.067 kcal/mol,2.11 ± 0.1 kcal/mol
SAGGSAGGMAKVKILKIKPVNTGEDGSKSVEIEVEFENPNPEVAKAFVEEIAKKLGFEEVEDTTSAGGSAGG [r6_317_TrMRF],0.43 ± 0.079 kcal/mol,0.687 ± 0.15 kcal/mol,0.406 ± 0.28 kcal/mol
SAGGSAGGMDAEELAERIANHFQEHFPDMPIKVEVDPDHGWAKIEMRNPNNPGQKHEFEIPIDKSAGGSAGG [r6_478_TrROS],0.311 ± 0.093 kcal/mol,1.29 ± 0.031 kcal/mol,0.912 ± 0.1 kcal/mol
SAGGSAGGMEEVLALLKELGLEVKSVDIKSPDKVIVYIKPKDEKKLEELKKAVPKSLVDEIGLESAGGSAGG [r6_84_JUSTAS],-0.0936 ± 0.083 kcal/mol,0.455 ± 0.15 kcal/mol,0.275 ± 0.13 kcal/mol
SAGGSAGGMEIRVERDPESDLLVAELKIDGHDAIAVFDPNRPGHIEIGTTNEIPIEEIIDALLSSAGGSAGG [r6_195_TrMRF],0.683 ± 0.038 kcal/mol,-0.08 ± 0.32 kcal/mol,0.152 ± 0.37 kcal/mol
SAGGSAGGMEVVERVVKLPDGTELRITIERDPEKDTAKVTITDPTTSETRTLDVTSEEEALELLSAGGSAGG [r6_465_JUSTAS],2.31 ± 0.068 kcal/mol,1.56 ± 0.032 kcal/mol,1.93 ± 0.037 kcal/mol
SAGGSAGGMIEVYEEGDKLTVLNPGPDPNKKVTVTLDNGSATSSRIPEGTYVTTATVAPDATLKSAGGSAGG [r6_70_JUSTAS],0.14 ± 0.028 kcal/mol,-1.06 ± 0.36 kcal/mol,-0.169 ± 0.099 kcal/mol
SAGGSAGGMIIQEVEEFKDKSEEEVKKKMLEELKKKYPKSYKVKITVTKNPSGKYTVTVTITPNSAGGSAGG [r6_964_JUSTAS],2.19 ± 0.047 kcal/mol,2.65 ± 0.059 kcal/mol,2.51 ± 0.071 kcal/mol
SAGGSAGGMIIRVEFKNGEVKTFVVKSPEEAKKKLAESLGLKEDEIPLDEIKSVEILNLDEALSSAGGSAGG [r6_586_TrMRF],3.35 ± 0.1 kcal/mol,4.1 ± 0.073 kcal/mol,3.91 ± 0.073 kcal/mol
SAGGSAGGMIKIKLKNGEVLYIDPKKPVLYFNKEKKIIPVKKDKIEKALKELEKKGFKIEKIDPSAGGSAGG [r6_337_TrMRF],-0.249 ± 0.28 kcal/mol,-0.0347 ± 0.31 kcal/mol,0.0657 ± 0.15 kcal/mol

Sequence,folding stability dG unfold [1],folding stability dG unfold [2],folding stability dG unfold [3]
SAGGSAGGMIPLEEIEIEEITEETLPSNEKVITVKVKFPDGTKTLTFEPNEGEEKILEKIKELTSAGGSAGG [r6_233_JUSTAS],0.544 ± 0.042 kcal/mol,0.727 ± 0.034 kcal/mol,0.734 ± 0.082 kcal/mol
SAGGSAGGMIRFDTPEEVEAALKALRAKLPPGATLVIEIEVDGKLVRVEFKDGKITKVEVRELPSAGGSAGG [r6_288_TrROS_Hall],3.02 ± 0.16 kcal/mol,3.67 ± 0.12 kcal/mol,3.57 ± 0.2 kcal/mol
SAGGSAGGMITVNSEEEAKELEAELKEKGYKAEVTPKTGKNGPYYLITLTPIPKKKKSTKKSKLSAGGSAGG [r6_182_JUSTAS],1.16 ± 0.095 kcal/mol,1.03 ± 0.11 kcal/mol,1.13 ± 0.21 kcal/mol
SAGGSAGGMKAVITQPPDGTATVEIYDETTGKTTTKTIPADQPEEIEALIAGKVDEVTTTPAPASAGGSAGG [r6_640_JUSTAS],2.09 ± 0.12 kcal/mol,1.35 ± 0.1 kcal/mol,1.76 ± 0.095 kcal/mol
SAGGSAGGMKELAEKLGWEYEEKEEKLPSGKKILIATFTSPDGSKVIITFDPSTNKIISEEVFESAGGSAGG [r6_982_JUSTAS],4.28 ± 0.4 kcal/mol,3.71 ± 0.23 kcal/mol,4.03 ± 0.25 kcal/mol
SAGGSAGGMKIEIIEEKDGYIVLRVSPEDLEALEKLGFEIVSVEEVEGELYIVIKVSPEALKALSAGGSAGG [r6_108_TrROS_Hall],3.58 ± 0.095 kcal/mol,3.5 ± 0.037 kcal/mol,3.55 ± 0.066 kcal/mol
SAGGSAGGMKIRIEIEMTPEEVEALREELEKAGYRVEVERREDGRVRVTIEIELPPPPPPPEEESAGGSAGG [r6_8_TrROS_Hall],3.08 ± 0.24 kcal/mol,3.75 ± 0.13 kcal/mol,3.46 ± 0.2 kcal/mol
SAGGSAGGMKITTPDGKEITFPPKDETVTLTITVKLEDGTTVTIEIKFNKNGEIVEIKISIEKKSAGGSAGG [r6_530_TrROS_Hall],1.52 ± 0.07 kcal/mol,2.43 ± 0.061 kcal/mol,1.99 ± 0.17 kcal/mol
SAGGSAGGMKITVEEVKVEKKEDGSYRVRIRLKNGEVLELEFESLEEALAAAKKLGAEITEIEPSAGGSAGG [r6_84_TrROS_Hall],3.12 ± 0.058 kcal/mol,3.54 ± 0.038 kcal/mol,3.35 ± 0.04 kcal/mol
SAGGSAGGMKIVVEEVDEEKGYVRIRIEDPETKEEKEIVVKVKTPEEAEALAKKLAEAGYEVETSAGGSAGG [r6_796_TrROS_Hall],1.27 ± 0.045 kcal/mol,1.79 ± 0.028 kcal/mol,1.61 ± 0.087 kcal/mol
SAGGSAGGMKPGEEKEITLPDGSKIKVRIKDGKLEIEFENGERKEIEIKPGEKIEIKLPKGVKPSAGGSAGG [r6_970_TrROS_Hall],1.4 ± 0.076 kcal/mol,2.05 ± 0.085 kcal/mol,1.81 ± 0.083 kcal/mol
SAGGSAGGMKPISRSTYTNPLNGTTITVTKYPETGEYVITLPDGTTYTVPKSVPITSVEEAIKNSAGGSAGG [r6_72_JUSTAS],0.32 ± 0.066 kcal/mol,1.32 ± 0.15 kcal/mol,0.977 ± 0.096 kcal/mol
SAGGSAGGMKQYIVTVTLKSPDGTEHTIELETESLDEVKEKLKNLPDPNLELVELKVVPKEELASAGGSAGG [r6_297_JUSTAS],2.39 ± 0.098 kcal/mol,2.21 ± 0.035 kcal/mol,2.25 ± 0.13 kcal/mol
SAGGSAGGMKVKIVSFDPENQEVVIYDEKTGKEIVVKAKSVEELKAALEKLGLEVEVEVLPPEESAGGSAGG [r6_27_TrROS_Hall],2.99 ± 0.43 kcal/mol,3.19 ± 0.26 kcal/mol,3.3 ± 0.39 kcal/mol
SAGGSAGGMKVTIEKENGKYRIKVEIEKNGKKIEIEIDMSVEELKKELEKKLNIKIKKVEIEPVSAGGSAGG [r6_762_TrROS_Hall],1.7 ± 0.2 kcal/mol,1.03 ± 0.53 kcal/mol,1.5 ± 0.66 kcal/mol
